Test results from paper doi:10.1101/2023.10.24.563710 (bioRxiv, 2023).

B1: P116 ectodomain (residues 30-957), C-terminally shortened and HIS-tagged (domain or fragment, Mycoplasma pneumoniae, UniProt P75556 30-957, looked up)
chain: NKTHQVEHESEQSDFQDIRFGLNSVKLPKAQPAAATRITVENGTDKLVNYKSSPQQLFLAKNALKDKLQGEFDKFLSDAKAFPALTADLQEWVDQQLFNPNQSFFDLSAPRSNFTLSSDKKASLDFIFRFTNFTESVQLLKLPEGVSVVVDSKQSFDYYVNASAQKLLVLPLSLPDYTLGLNYMFDHITLNGKVVNKFSFNPFKTNLNLAFSNVYNGVDVFEAQKNLVGKGKYLNTHVKAEDVKKDVNANIKNQFDIAKIIAELMGKALKEFGNQQEGQPLSFLKVMDKVKEDFEKLFNLVRPGLGKFVKDLIQSSSQAENKITVYKLIFDNKKTILNLLKELSIPELNSSLGLVDVLFDGITDSDGLYERLQSFKDLIVPAVKTNEKTAALSPLIEELLTQKDTYVFDLIQKHKGILTNLLKNFLADFQKSTPFMADQVAIFTELFDNEGAFDLFGEADFVDKIAELFLTKRTVKNGEKIETKDSLLVTSLKSLLGEKVAALGDLLDSYIFKNELLNRSVEVAKAEAKDTKGATDYKKEQAKALKKLFKHIGENTLSKTNLDKITLKEVKNTENVELEETETTLKVKKLDVEYKVELGNFEIKNGLIKAMLEFLPDTKDLETTLDKLLFKGESYKAMKDKYIKEGFPGYGWAKGVVPGAFESIENTFKSAIDKTKSIRDLFGDMLFGNDLSSVKETDSFITLGGSFDIKYGGENLNVLPAYYSLINSEIGYQIIGVDTTIDATKVKVELKNKEYKGKSPAINGQVKLSQSFFNVWTNMFDSITKQIFQKKYEFKDNIQVFARNEDNTSRLELDISDPEQRVIPFAFVDGFGIQLKAVDKNITKEAGNTEPKSPVIQLYEALNKEKDQKQQSKQSPKQLDTKTQLGYLLKLGDNWSKDDYKSLIDDTIINNNYLEASFNSKITVDRLG
B2: ΔN-P116 (residues 246-818), truncated N-terminal domain and F-loop (domain or fragment, Mycoplasma pneumoniae, UniProt P75556 246-818, looked up)
chain: GVDVFEAQKNLVGKGKYLNTHVKAEDVKKDVNANIKNQFDIAKIIAELMGKALKEFGNQQEGQPLSFLKVMDKVKEDFEKLFNLVRPGLGKFVKDLIQSSSQAENKITVYKLIFDNKKTILNLLKELSIPELNSSLGLVDVLFDGITDSDGLYERLQSFKDLIVPAVKTNEKTAALSPLIEELLTQKDTYVFDLIQKHKGILTNLLKNFLADFQKSTPFMADQVAIFTELFDNEGAFDLFGEADFVDKIAELFLTKRTVKNGEKIETKDSLLVTSLKSLLGEKVAALGDLLDSYIFKNELLNRSVEVAKAEAKDTKGATDYKKEQAKALKKLFKHIGENTLSKTNLDKITLKEVKNTENVELEETETTLKVKKLDVEYKVELGNFEIKNGLIKAMLEFLPDTKDLETTLDKLLFKGESYKAMKDKYIKEGFPGYGWAKGVVPGAFESIENTFKSAIDKTKSIRDLFGDMLFGNDLSSVKETDSFITLGGSFDIKYGGENLNVLPAYYSLINSEIGYQIIGVDTTIDATKVKVELKNKEYKGKSPAINGQVKLSQSFFNVWTNMFDSITKQIFQ

Molecular target: the molecule itself
Assay: cryo-EM structure

Row | Protein | stoichiometry N
1 | B1 | 2
2 | B2 | 2
